According to paper PMC4352707:

Target: Cry1 (UniProt P97784)
Experiment: co-IP, immunoblot
Settings: reference: wild-type Hausp; sites S18

## Hausp (Usp7), Hausp-V5 (from UniProt Q93009) Hausp S18A
  binding against the reference: stronger
